Legend:
[1] = target: DP-1/E2F-1 heterodimer (murine)
[2] = tested on: DP-1/E2F-1 + orf 6/7 (in SL2 cells) (Mus musculus? / Homo sapiens? / adenovirus type 5); assay: cell_activity; settings: enhancement by orf 6/7 over DP-1/E2F-1

Substance | transcriptional activity of the adenovirus E2a promoter (pE2a CAT reporter, SL2 cells) [1] [fold] | activity [2] [fold]
Ad5 orf 6/7 protein expressed from pE4 (complete Ad5 orf 6/7 cDNA) | 2 | –
E2a promoter (-96 to +68), two E2F sites | – | 2
